Data taken from the supplement of paper PMC10065799, “High-throughput profiling of sequence recognition by tyrosine kinases and SH2 domains using bacterial peptide display” (eLife, 2023).
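Further: 11-residue human phosphosite peptides and single-mutation variants displayed on the E. coli surface, counted by deep sequencing, each peptide's frequency after selection divided by its frequency in the unselected input library; frequency after pTyr selection over input frequency; kinase dosed for 20-30% of maximal phosphorylation in three min.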

The sequences below were run against MERTK (UniProt Q12866) (assay: phosphorylation enrichment, bacterial display (enrichment ratio); higher = better substrate or ligand; peptides without Tyr show the background).
MERTK, sequence (Q12866 whole entry, looked up): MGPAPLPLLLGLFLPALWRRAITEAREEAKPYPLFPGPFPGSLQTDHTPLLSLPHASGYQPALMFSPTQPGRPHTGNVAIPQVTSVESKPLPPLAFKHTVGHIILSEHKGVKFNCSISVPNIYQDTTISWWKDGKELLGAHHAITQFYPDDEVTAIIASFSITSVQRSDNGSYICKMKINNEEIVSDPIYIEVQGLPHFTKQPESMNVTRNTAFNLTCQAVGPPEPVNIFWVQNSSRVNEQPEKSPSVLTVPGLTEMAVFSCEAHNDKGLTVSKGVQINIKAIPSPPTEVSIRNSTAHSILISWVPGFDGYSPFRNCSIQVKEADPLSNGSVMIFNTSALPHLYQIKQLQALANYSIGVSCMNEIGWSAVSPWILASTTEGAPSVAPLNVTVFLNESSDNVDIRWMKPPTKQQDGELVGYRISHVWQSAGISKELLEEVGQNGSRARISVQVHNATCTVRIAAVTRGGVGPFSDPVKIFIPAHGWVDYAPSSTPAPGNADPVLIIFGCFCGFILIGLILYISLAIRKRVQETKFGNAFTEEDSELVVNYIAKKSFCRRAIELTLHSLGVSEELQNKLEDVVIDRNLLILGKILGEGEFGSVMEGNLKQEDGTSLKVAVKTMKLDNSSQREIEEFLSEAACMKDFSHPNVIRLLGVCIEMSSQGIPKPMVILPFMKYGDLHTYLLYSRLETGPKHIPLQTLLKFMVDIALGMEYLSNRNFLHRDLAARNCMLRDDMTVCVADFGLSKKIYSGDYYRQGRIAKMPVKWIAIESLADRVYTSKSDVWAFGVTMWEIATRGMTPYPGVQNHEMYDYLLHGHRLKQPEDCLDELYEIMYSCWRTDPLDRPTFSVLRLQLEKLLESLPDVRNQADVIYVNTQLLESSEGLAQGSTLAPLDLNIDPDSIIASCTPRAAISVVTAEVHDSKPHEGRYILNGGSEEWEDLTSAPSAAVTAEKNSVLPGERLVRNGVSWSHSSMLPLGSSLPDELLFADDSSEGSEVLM
IDSTPYRQWFE [RPS8_Y109_YF] was tested, and the phosphorylation enrichment was 0.357. For FETSHYPASPD [CTNND2_Y1217_YF], the phosphorylation enrichment was 0.323. NPIGLYSAETL [LDB3_Y202] showed a phosphorylation enrichment of 4.18. In the case of QELRRYLESGV [MICA_Y194_K196E], the phosphorylation enrichment is reported as 0.49. Sequence KTSGNYLPVTG [WDR19_Y28_A30P] has a phosphorylation enrichment of 0.598. Work on IRYPPYTDWNQ [ALDH3B2_Y365_H361R] yielded a phosphorylation enrichment of 0.429. For LHVKMYNFLRS [ADGRG7_Y760_R756H], the phosphorylation enrichment was 0.85. Work on KSDVVYTDWKK [ORM1_Y175] yielded a phosphorylation enrichment of 0.559. Sequence RLVTRYIFNRE [HLA-DQB1_Y62_Y58L_YF] has a phosphorylation enrichment of 0.652. For GVPLGYPIKAS [ELN_Y206_P211S], the phosphorylation enrichment was 0.366. Sequence DAANNYARGHY [TUBA3E_Y103_S101N] has a phosphorylation enrichment of 0.528. With REVPVYISEDS [SYNM_Y460_G462S] the phosphorylation enrichment was 1.53. With GKSDPYHATTG [GJA1_Y247_S251T] the phosphorylation enrichment was 0.319. Work on RGSQQYRALPV [TUBB8_Y281_T285P] yielded a phosphorylation enrichment of 0.525. For YNDSTYNQQLI [ZPLD1_Y198], the phosphorylation enrichment was 0.435. LLFRVYGLESL [INSR_Y94] gave a phosphorylation enrichment of 0.792. Work on TNFCLYLRSLE [MTM1_Y71_R69C_YF] yielded a phosphorylation enrichment of 0.492. In the case of EVDGLYREAPI [MYL12B_Y143_E141G], the phosphorylation enrichment is reported as 0.443. EITSHYRHLLR [ZBTB46_Y14] showed a phosphorylation enrichment of 0.392. With KPNMNYDKLSR [FLI1_Y332] the phosphorylation enrichment was 0.337. Sequence YDGKDYIALKE [HLA-A_Y147_N151K] has a phosphorylation enrichment of 0.439. With PLDGEYFTLHI [TP53_Y327_Q331H] the phosphorylation enrichment was 0.752. With SHGKQYRVPSD [HHIPL2_Y395_R394Q] the phosphorylation enrichment was 0.347. Sequence TKEPKYGGAGS [KIAA1210_Y1615_E1616G] has a phosphorylation enrichment of 0.384. AKKIKYFEGVS [PRKDC_Y682] showed a phosphorylation enrichment of 0.383. AEPNIYQEKLS [USP54_Y1233_D1231N] gave a phosphorylation enrichment of 0.339. YETVKYINNER [ABCB7_Y345_F346I] gave a phosphorylation enrichment of 0.903. WVFNHYRWFIW [BRCA2_Y2624_I2627F_YF] showed a phosphorylation enrichment of 0.463. Sequence GSIQQYTYKQE [PRG4_Y1271_I1272T] has a phosphorylation enrichment of 0.374. EPVSDYINANI [PTPN11_Y304] gave a phosphorylation enrichment of 0.325. KEELAYLKKNH [KRT14_Y248] was tested, and the phosphorylation enrichment was 0.333. NFATLYLKIYH [PDE6B_Y219] showed a phosphorylation enrichment of 0.392. For LRVGFYESDVM [A2M_Y708], the phosphorylation enrichment was 2.61.

What follows are sequences tested on c-Abl (mouse) in the same assay as above.
IDSTPYRQWFE [RPS8_Y109_YF] gave a phosphorylation enrichment of 0.665. For FETSHYPASPD [CTNND2_Y1217_YF], the phosphorylation enrichment was 0.463. With NPIGLYSAETL [LDB3_Y202] the phosphorylation enrichment was 0.496. Work on QELRRYLESGV [MICA_Y194_K196E] yielded a phosphorylation enrichment of 0.616. KTSGNYLPVTG [WDR19_Y28_A30P] was tested, and the phosphorylation enrichment was 0.446. IRYPPYTDWNQ [ALDH3B2_Y365_H361R] gave a phosphorylation enrichment of 0.487. With LHVKMYNFLRS [ADGRG7_Y760_R756H] the phosphorylation enrichment was 2.26. KSDVVYTDWKK [ORM1_Y175] was tested, and the phosphorylation enrichment was 1.4. Work on RLVTRYIFNRE [HLA-DQB1_Y62_Y58L_YF] yielded a phosphorylation enrichment of 0.51. Sequence GVPLGYPIKAS [ELN_Y206_P211S] has a phosphorylation enrichment of 0.714. In the case of DAANNYARGHY [TUBA3E_Y103_S101N], the phosphorylation enrichment is reported as 0.559. With REVPVYISEDS [SYNM_Y460_G462S] the phosphorylation enrichment was 2.66. For GKSDPYHATTG [GJA1_Y247_S251T], the phosphorylation enrichment was 0.476. Sequence RGSQQYRALPV [TUBB8_Y281_T285P] has a phosphorylation enrichment of 0.694. YNDSTYNQQLI [ZPLD1_Y198] was tested, and the phosphorylation enrichment was 0.533. LLFRVYGLESL [INSR_Y94] gave a phosphorylation enrichment of 1.15. TNFCLYLRSLE [MTM1_Y71_R69C_YF] gave a phosphorylation enrichment of 1.27. For EVDGLYREAPI [MYL12B_Y143_E141G], the phosphorylation enrichment was 0.662. Work on EITSHYRHLLR [ZBTB46_Y14] yielded a phosphorylation enrichment of 0.733. Sequence KPNMNYDKLSR [FLI1_Y332] has a phosphorylation enrichment of 0.459. YDGKDYIALKE [HLA-A_Y147_N151K] showed a phosphorylation enrichment of 0.72. For PLDGEYFTLHI [TP53_Y327_Q331H], the phosphorylation enrichment was 1.93. In the case of SHGKQYRVPSD [HHIPL2_Y395_R394Q], the phosphorylation enrichment is reported as 0.512. Work on TKEPKYGGAGS [KIAA1210_Y1615_E1616G] yielded a phosphorylation enrichment of 0.462. With AKKIKYFEGVS [PRKDC_Y682] the phosphorylation enrichment was 0.328. AEPNIYQEKLS [USP54_Y1233_D1231N] showed a phosphorylation enrichment of 0.802. YETVKYINNER [ABCB7_Y345_F346I] showed a phosphorylation enrichment of 0.619. With WVFNHYRWFIW [BRCA2_Y2624_I2627F_YF] the phosphorylation enrichment was 0.898. GSIQQYTYKQE [PRG4_Y1271_I1272T] showed a phosphorylation enrichment of 0.731. EPVSDYINANI [PTPN11_Y304] was tested, and the phosphorylation enrichment was 0.603. Work on KEELAYLKKNH [KRT14_Y248] yielded a phosphorylation enrichment of 0.528. In the case of NFATLYLKIYH [PDE6B_Y219], the phosphorylation enrichment is reported as 0.827. In the case of LRVGFYESDVM [A2M_Y708], the phosphorylation enrichment is reported as 1.9.
